6 substances from patent publication US20200237885A1, “VACCINES FOR TREATMENT AND PREVENTION OF CANCER” (Agenus Inc., priority 2015, published 2020) can be followed below.

Where no end group is shown, it is not given here. [ ]: non-standard residue; d: D form. pS = N[C@@H](COP(=O)(O)O)C(=O)O

Experiment [1] has as its target T1, recombinant human Hsc70 (Homo sapiens, UniProt P11142).
T1 construct: purchased Biomay AG
In words: Hsc70-peptide complex formation by size exclusion chromatography (SEC). It is filed as binding. The following applies: for Percentage of Hsc70 loaded with peptide: peptide:Hsc70 4:1 molar excess, PBS 37° C. 1 hour. From the text: Hsc70-peptide complex formation was examined in vitro using size exclusion chromatography (SEC). Hsc70 resolves in two main peaks on a size exclusion column, with one peak corresponding to its monomeric form and the other peak to an oligomeric form (FIG. 14). Hsc70 undergoes a conformational change upon binding peptide (Zhuravleva and Gierasch, P.N.A.S. 112[22]:E2865-73 [2015]), resulting in the appearance of a new peak on the SEC chromatogram that corresponds to the peptide-bound form (FIG. 15). By measuring the surface area of each of the peaks corresponding to the forms of Hsc70 on a chromatogram, the percentage of Hsc70 complexed with a peptide can be determined. The effect of the molar ratio of Hsc70 to peptide on Hsc70-peptide complex formation was determined by combining Hsc70 and a test peptide at Hsc70/peptide molar ratios of 1:4, 1:10, 1:20, and 1:50, and then resolving the resulting mixtures by SEC to determine the extent of complex formation. The peptide used in these experiments was the immunogenic peptide B16-M27 (“M27”), containing a B16-F10 melanoma-specific mutation, as described in Kreiter et al., Nature 520(7549):692-6 (2015) (also described in Examples 9-11). The effect on complex formation of appending a high affinity Hsc70-binding peptide sequence to a chicken ovalbumin peptide having the amino acid sequence SIINFEKL (SEQ ID NO:448), that is highly immunogenic in mice (Zehn et al, Nature 458:211-214 [12 Mar., 2009]) was also tested. The high affinity Hsc70 binding sequence, NLLRLTG (SEQ ID NO:439) was appended to either the C- or N-terminus of the ovalbumin peptide, and was linked to the ovalbumin peptide by a linker having the sequence FFRK (SEQ ID NO:447), as disclosed in U.S. Pat. No. 7,309,491.
Standard size exclusion chromatography was carried out using 7 μM of recombinant human Hsc70 (Genbank Accession No. P11142.1) (Biomay AG) in a reaction buffer containing 20 mM HEPES and 200 mM KCL in a final volume of 50 μl. Reactions were incubated at 37° C. for 1 or 2 hours and centrifuged 2 min at 13000 RPM. Reaction products (10 μg) were resolved on a TSKgel SuperSW3000, 4 μm particle size, 25 nm pore size gel filtration chromatography column (Tosoh Bioscience). For reactions containing peptide, peptide was included in the reaction mixtures at Hsc70:peptide molar ratios of 1:4, 1:10, 1:20, and 1:50. The percentage of Hsc70 complexed with peptide in each reaction mixture was calculated by measuring the surface area of the appropriate peak.
The peptides listed above were individually incubated with Hsc70 in PBS at 37° C. for 1 hour to form non-covalent Hsc70-peptide complexes. For M27 and M30, the peptides were added to Hsc70 at a 20:1 molar excess (peptide:Hsc70) while for M27-Jav and M30-Jav, the peptides were added at a 4:1 molar excess. After incubation, the mixtures were diluted 10 times in PBS at 4° C. and concentrated using a 30 kDa MW cut off Millipore® Amicon® centrifugal filter to separate Hsc70-peptide complexes from free, uncomplexed peptide. The retained complexes 5 Hsc70-M27 and Hsc70-M30 were pooled and subsequently analyzed by size exclusion chromatography (SEC) to quantify the proportion of Hsc70 molecules loaded with peptide. […] The same pooling, filtration and SEC analysis steps were followed for the Hsc70-M27-Jay and Hsc70-M30-Jav complexes with the observation that 73% of the Hsc70 molecules were loaded with the peptides.
Four peptides (Table 9) containing a phosphorylated serine residue were synthesized to 95% purity (GenScript, Cambridge, Mass.). The peptides comprise HLA-A*02:01 binding epitopes of the CDC25 or IRS-2 antigen modified at either their C-termini or N-termini with the addition of a linker sequence FFRK (SEQ ID NO:447) and a high affinity HSP binding peptide sequence NLLRLTG (SEQ ID NO: 439). These peptides were individually incubated with Hsc70 in PBS at 37° C. for 1 hour at a 4:1 molar excess (peptide:Hsc70) to form non-covalent Hsc70-peptide complexes. […]

Experiment [2] deals with T1, recombinant human Hsc70. The experiment is described as above. It is filed as binding.
[3] abbreviates: Hsc70:peptide molar ratio 1:10, 37° C.

T1 sequence (P11142 whole entry): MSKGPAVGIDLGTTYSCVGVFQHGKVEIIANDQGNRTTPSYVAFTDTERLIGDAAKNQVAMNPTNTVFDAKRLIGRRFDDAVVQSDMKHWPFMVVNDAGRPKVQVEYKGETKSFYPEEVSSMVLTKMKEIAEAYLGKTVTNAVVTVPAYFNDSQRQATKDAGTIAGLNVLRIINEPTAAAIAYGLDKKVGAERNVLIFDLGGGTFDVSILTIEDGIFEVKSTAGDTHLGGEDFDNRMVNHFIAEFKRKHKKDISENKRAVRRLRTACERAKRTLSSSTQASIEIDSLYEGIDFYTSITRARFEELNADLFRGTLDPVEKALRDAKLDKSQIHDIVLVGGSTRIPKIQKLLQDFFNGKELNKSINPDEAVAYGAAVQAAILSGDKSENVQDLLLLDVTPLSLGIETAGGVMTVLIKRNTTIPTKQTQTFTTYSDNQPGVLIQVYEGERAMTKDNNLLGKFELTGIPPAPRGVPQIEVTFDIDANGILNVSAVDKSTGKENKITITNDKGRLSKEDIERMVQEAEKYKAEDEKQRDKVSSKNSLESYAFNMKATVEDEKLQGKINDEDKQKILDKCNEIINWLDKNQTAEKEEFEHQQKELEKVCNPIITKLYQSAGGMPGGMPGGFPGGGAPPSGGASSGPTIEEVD

With “GLLG{pSer}PVRAFFRKNLLRLTG (GLLG[pS]PVRAFFRKNLLRLTG) [SEQ ID NO 474]”, the “Percentage of Hsc70 loaded with peptide” value with recombinant human Hsc70 [1] came to 74%. Regarding “NLLRLTGFFRKRVA{pSer}PTSGV (NLLRLTGFFRKRVA[pS]PTSGV) [SEQ ID NO 475]”, the “Percentage of Hsc70 loaded with peptide” value with recombinant human Hsc70 [1] is 34%. Consider “RVA{pSer}PTSGVFFRKNLLRLTG (RVA[pS]PTSGVFFRKNLLRLTG) [SEQ ID NO 476]”, for which, in the experiment with recombinant human Hsc70 [1], the “Percentage of Hsc70 loaded with peptide” value worked out at 75%. As to REGVELCPGNKYEMRRHGTTHSLVIHD (M27), the “percentage of Hsc70 bound to peptide” value with recombinant human Hsc70 [1] (Hsc70:peptide molar ratio 1:4, 37° C.) amounted to 20%. Besides, the “percentage of Hsc70 complexed with peptide” value with recombinant human Hsc70 [1] (setting [3]) is “approximately 40%”; with recombinant human Hsc70 [1] (Hsc70:peptide molar ratio 1:20, 37° C.), “approximately 50%”; with recombinant human Hsc70 [1] (Hsc70:peptide molar ratio 1:50, 37° C.) it was “approximately 65%”. For the same substance, the “change in extent of complex formation with incubation time” value in the experiment with recombinant human Hsc70 [2] (incubation time increased from 2 to 3 hours at 37° C.) is recorded as “only a minor increase”.

“SIINFEKLFFRKNLLRLTG [SEQ ID NO:449, reference compound]”: the “percentage of Hsc70 complexed with peptide” value with recombinant human Hsc70 [1] (setting [3]) is “over 90%”. Also, the “extent of complex formation, NLLRLTG at C-terminus compared to N-terminus” value in the experiment with recombinant human Hsc70 [2] (Hsc70:peptide molar ratio 1:2, same result at 1:5) is “significantly greater”. For the substance “NLLRLTGFFRKGLLG{pSer}PVRA (NLLRLTGFFRKGLLG[pS]PVRA) [SEQ ID NO 473]”, in the experiment with recombinant human Hsc70 [1], the “Percentage of Hsc70 loaded with peptide” value is listed as 41%.
